The values that follow come from US20240036044A1 (GEMINA LABORATORIES, published 2024).

Experiment [1] addresses Monoclonal antibody against the SARS-CoV-2 Spike protein (A02038, Genscript).
For experiment [2], the target named is Monoclonal antibody against the SARS-CoV-2 Nucleocapsid protein (A02039, Genscript).
Experiment [3] has as its target T1, recombinant SARS-CoV-2 Nucleocapsid protein antigen (Z03488, Genscript) (SARS-CoV-2, UniProt P0DTC9 1-419).
T1 construct: also called SARS-CoV-2 Nucleocapsid antigen; NC
Description: dot blot dipstick, gold nanoparticles with EMT-003 alone.

In experiment [4] the target is T2, recombinant SARS-CoV-2 Spike protein antigen (Z03501, Genscript) (SARS-CoV-2, UniProt P0DTC2 16-685).
T2 construct: also called SARS-CoV-2 Spike antigen; S antigen
Kind of experiment: dot blot dipstick assay, gold nanoparticle conjugate without antibody.

B1: gold-binding fusion protein EMT003 (protein G' - linker - gold-binding peptide EMT015) (other)
chain: MTYKLILNGKTLKGETTTEAVDAATAEKVFKQYANDNGVDGEWTYDDATKTFTVTEKPEVIDASELTPAVTTYKLVINGKTLKGETTTEAVDAATAEKVFKQYANDNGVDGEWTYDDATKTFTVTEKPEVIDASELTPAVTTYKLVINGKTLKGETTTKAVDAETAEKAFKQYANDNGVDGVWTYDDATKTFTVTEGGGGSGGGGSGGGGSASGGGMHGKTQATSGTIQSMHGKTQATSGTIQSMHGKTQATSGTIQSMHGKTQATSGTIQSMHGKTQATSGTIQSMHGKTQATSGTIQSMHGKTQATSGTIQS
notes: also called EMT-03; Gold fusion protein
Broadly, the Kd is the free concentration of one partner at which half of the binding sites on the other are occupied at equilibrium, for simple one-to-one binding. Usually koff stands for a measure of how fast the partners let go of each other. The term kon denotes a measure of how fast the partners come together. A high value points to fast association. As for B1, the results for the dissociation constant (Kd) in experiment [1] and in experiment [2] were 0.192 nM and 0.258 nM, respectively. Besides, the results for the off-rate constant (koff) in experiment [1] and in experiment [2] were 0.000103 s⁻¹ and 0.000149 s⁻¹, respectively. The values for the on-rate (kon) in experiment [1] and in experiment [2] were 537000 M⁻¹ s⁻¹ and 577000 M⁻¹ s⁻¹, respectively. Moreover, the binding result in experiment [3] was “no binding”; in experiment [4], “no binding (tested: 0.5 µg antigen spotted)”.
